Tests used:
Experiment in all cases: cell-based or functional assay
[1] = target: human CRF2-4 (IL10Rb) (human)
[2] = target: zcytoR19 and IL10Rb (CRF2-4) co-expressed on cells (heterodimeric receptor) (human)
[3] = target: T1, human zcytor19 (Zyctor19) cytokine receptor (human)
T1 sequence (Q8IU57 1-520, looked up): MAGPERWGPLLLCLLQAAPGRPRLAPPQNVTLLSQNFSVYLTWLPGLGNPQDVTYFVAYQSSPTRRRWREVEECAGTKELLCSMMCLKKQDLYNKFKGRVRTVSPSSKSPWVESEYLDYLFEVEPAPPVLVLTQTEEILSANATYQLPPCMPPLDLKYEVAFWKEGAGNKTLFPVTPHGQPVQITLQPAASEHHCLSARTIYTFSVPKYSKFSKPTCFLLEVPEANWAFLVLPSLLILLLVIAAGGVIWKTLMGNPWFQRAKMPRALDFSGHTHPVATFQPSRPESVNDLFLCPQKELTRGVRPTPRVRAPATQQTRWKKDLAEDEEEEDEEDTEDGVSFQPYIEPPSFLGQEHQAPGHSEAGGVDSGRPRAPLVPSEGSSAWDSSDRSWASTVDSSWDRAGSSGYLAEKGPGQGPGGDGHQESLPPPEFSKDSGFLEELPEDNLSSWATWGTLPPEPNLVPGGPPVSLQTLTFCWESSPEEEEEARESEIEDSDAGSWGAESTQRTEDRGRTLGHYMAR

Chain of human CRF2-4 (IL10Rb) (human) (Q08334 whole entry): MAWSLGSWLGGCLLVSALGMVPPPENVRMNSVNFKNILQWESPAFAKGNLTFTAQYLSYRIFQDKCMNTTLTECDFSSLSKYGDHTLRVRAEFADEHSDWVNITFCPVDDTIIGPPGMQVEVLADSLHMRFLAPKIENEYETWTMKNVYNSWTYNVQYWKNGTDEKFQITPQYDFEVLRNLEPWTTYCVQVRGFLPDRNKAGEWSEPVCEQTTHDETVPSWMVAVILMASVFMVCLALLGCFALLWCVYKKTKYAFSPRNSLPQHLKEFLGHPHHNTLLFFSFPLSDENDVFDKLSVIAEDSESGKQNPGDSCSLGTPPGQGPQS

B1: zcyto22 (ligand)
chain: MTGDCMPVLVLMAAVLTVTGAVPVARLRGALPDARGCHIAQFKSLSPQELQAFKRAKDALEESLLLKDCKCRSRLFPRTWDLRQLQVRERPVALEAELALTLKVLEATADTDPALGDVLDQPLHTLHHILSQLRACVSRQGPGTQIQPQPTAGPRTRGRLHHWLHRLQEAPKKESPGCLEASVTFNLFRLLTRDLNCVASGDLCV
ISRE-luciferase fold induction, wild-type 293 cells, Zcyto22 0.01 ng/ml (fold induction) [1]: 0.9
ISRE-luciferase fold induction, wild-type 293 cells, Zcyto22 0.01 ng/ml + IL10Rb neutralizing Antibody (fold induction) [1]: 0.9
ISRE-luciferase fold induction, wild-type 293 cells, Zcyto22 0.1 ng/ml (fold induction) [1]: 1.2
ISRE-luciferase fold induction, wild-type 293 cells, Zcyto22 0.1 ng/ml + IL10Rb neutralizing Antibody (fold induction) [1]: 0.8
ISRE-luciferase fold induction, wild-type 293 cells, Zcyto22 1 ng/ml (fold induction) [1]: 1.8
ISRE-luciferase fold induction, wild-type 293 cells, Zcyto22 1 ng/ml + IL10Rb neutralizing Antibody (fold induction) [1]: 0.8
ISRE-luciferase fold induction, wild-type 293 cells, Zcyto22 10 ng/ml (fold induction) [1]: 8
ISRE-luciferase fold induction, wild-type 293 cells, Zcyto22 10 ng/ml + IL10Rb neutralizing Antibody (fold induction) [1]: 1
ISRE-luciferase fold induction, wild-type 293 cells, Zcyto22 100 ng/ml (fold induction) [1]: 11
ISRE-luciferase fold induction, wild-type 293 cells, Zcyto22 100 ng/ml + IL10Rb neutralizing Antibody (fold induction) [1]: 1.2
ISRE-luciferase fold induction, BHK cells transfected with zcytoR19 and IL10Rb (CRF2-4), zcyto22 0.001 ng/ml (fold induction) [2]: 1.3
ISRE-luciferase fold induction, BHK cells transfected with zcytoR19 and IL10Rb (CRF2-4), zcyto22 0.01 ng/ml (fold induction) [2]: 1.7
ISRE-luciferase fold induction, BHK cells transfected with zcytoR19 and IL10Rb (CRF2-4), zcyto22 0.1 ng/ml (fold induction) [2]: 2.4
ISRE-luciferase fold induction, BHK cells transfected with zcytoR19 and IL10Rb (CRF2-4), zcyto22 1 ng/ml (fold induction) [2]: 2.7
ISRE-luciferase fold induction, BHK cells transfected with zcytoR19 and IL10Rb (CRF2-4), zcyto22 10 ng/ml (fold induction) [2]: 2.7
ISRE-luciferase fold induction, BHK cells transfected with zcytoR19 and IL10Rb (CRF2-4), zcyto22 100 ng/ml (fold induction) [2]: 2.2
ISRE-luciferase fold induction, BHK cells transfected with zcytoR19 and IL10Rb (CRF2-4), zcyto22 1000 ng/ml (fold induction) [2]: 2.2
ISRE-luciferase fold induction, 293 cells transfected with ISRE-Luc./Zcytor19, Zcyto22 125 ng/ml (fold induction) [3]: 104
ISRE-luciferase fold induction, BHK cells transfected with zcytoR19 alone, zcyto22 0.001 ng/ml (fold induction) [3]: 1.2
ISRE-luciferase fold induction, BHK cells transfected with zcytoR19 alone, zcyto22 0.01 ng/ml (fold induction) [3]: 1.2
ISRE-luciferase fold induction, BHK cells transfected with zcytoR19 alone, zcyto22 0.1 ng/ml (fold induction) [3]: 1.1
ISRE-luciferase fold induction, BHK cells transfected with zcytoR19 alone, zcyto22 1 ng/ml (fold induction) [3]: 1.5
ISRE-luciferase fold induction, BHK cells transfected with zcytoR19 alone, zcyto22 10 ng/ml (fold induction) [3]: 1.9
ISRE-luciferase fold induction, BHK cells transfected with zcytoR19 alone, zcyto22 100 ng/ml (fold induction) [3]: 2
ISRE-luciferase fold induction, BHK cells transfected with zcytoR19 alone, zcyto22 1000 ng/ml (fold induction) [3]: 1.8

From patent US20040029228A1
